Laboratory results as given in US20200299730A1.

How the values were obtained:
Assay in all cases: cell-based or functional assay
[1] = target: MART1 peptide-HLA (pHLA) single polypeptide chain (antigenic peptide, β2-microglobulin, HLA-A2 domains) constitutively expressed on K562 target cells (human)
[2] = target: MART-1 peptide pulsed on K562 target cells expressing the non-cognate MHC HLA-A01 (human)
[3] = target: MART-1 peptide pulsed on HLA-A02 expressing K562 target cells (human)

Substance	Cytotoxic Killing [1] [%]	Cytotoxic Killing [2] [%]	Cytotoxic Killing [3] [%]	single-cell secretome (Isoplexis), CD8+ T cells producing more than one cytokine [3] [%]
MART-1 (F5) TCR expressed by lentiviral transduction (pCCLc-MND-F5TCR-Myc271), on human CD3+ T cells (TCR; unit assumed)	39.4	8.5	38.1	–
MART-1 neoTCR (F5) encoded by HR template NTC9385R-TRAC(1k)DTS_P2A.F5.TRBopt.f-P2A.TRA(Va)opt (SEQ ID NO: 10), on edited primary human T cells	–	–	–	< 40
MART-1 neoTCR (F5) encoded by HR template NTC9385R-TRAC(1k)DTS_P2A.F5.TRBopt.f-P2A.TRAopt.BGHpA (SEQ ID NO: 9), on edited primary human T cells (TCR; unit assumed)	34.5	10.6	25.6	–
NY-ESO (1G4) TCR expressed by lentiviral transduction (pCCLc-MND-1G4TCR-Myc271), on human CD3+ T cells (TCR; unit assumed)	8.4	8.3	8.7	–
